One data set has as its system OCT4 (Homo sapiens). Conditions: ChIP-qPCR, human HUES-6 ESCs. Background: Quantitative PCR measures a nucleic acid by following its amplification.
The test system of another data set is SOX2 (Homo sapiens). Conditions: ChIP-qPCR, human HUES-6 ESCs.
The target in a further data set is Sox2 (Mus musculus) (UniProt P48432). The settings on record: ChIP-qPCR, undifferentiated mouse ESCs; 10-fold maximum after 3 days RA, none at 6 days.
Data set [1] deals with Oct4 (Pou5f1) (Mus musculus) (UniProt P20263). The settings on record: ChIP-qPCR, undifferentiated mouse ESCs; 10-fold maximum after 3 days RA, none at 6 days.
Chain of Oct4 (Pou5f1) (Mus musculus) (P20263 whole entry): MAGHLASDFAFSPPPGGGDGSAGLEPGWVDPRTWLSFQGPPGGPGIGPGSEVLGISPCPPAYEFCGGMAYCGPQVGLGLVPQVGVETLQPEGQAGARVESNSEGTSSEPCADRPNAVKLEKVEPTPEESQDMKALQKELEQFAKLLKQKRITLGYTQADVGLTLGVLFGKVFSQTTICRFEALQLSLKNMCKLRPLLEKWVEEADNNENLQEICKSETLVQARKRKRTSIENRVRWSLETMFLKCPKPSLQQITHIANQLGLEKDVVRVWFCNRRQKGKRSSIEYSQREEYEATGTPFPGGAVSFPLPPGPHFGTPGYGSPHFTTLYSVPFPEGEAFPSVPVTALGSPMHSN

Chain of Sox2 (Mus musculus) (P48432 whole entry): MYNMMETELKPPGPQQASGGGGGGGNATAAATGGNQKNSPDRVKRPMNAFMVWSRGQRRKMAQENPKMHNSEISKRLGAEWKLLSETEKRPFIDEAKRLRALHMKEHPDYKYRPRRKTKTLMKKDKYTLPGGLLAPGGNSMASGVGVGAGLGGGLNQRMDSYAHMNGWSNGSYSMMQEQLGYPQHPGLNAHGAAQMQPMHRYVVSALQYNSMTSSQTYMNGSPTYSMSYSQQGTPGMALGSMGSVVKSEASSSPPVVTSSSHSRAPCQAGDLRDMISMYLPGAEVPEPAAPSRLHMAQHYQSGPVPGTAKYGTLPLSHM

Take human NANOG promoter sox-oct region: the binding signal (fold enrichment) in the data set on OCT4 (Homo sapiens) and in the data set on SOX2 (Homo sapiens) was 6 in each case.

Consider “mouse Nanog promoter oct-sox region (ChIP amplicon 2)”, for which the binding signal (fold enrichment) was less than 37 with Sox2 (Mus musculus) and less than 43 in data set [1].

The values are drawn from US20090018059.
